# Article PMC11093223 (2024)
# Legend:
# [1] = target: TBC1D23 C-terminal domain K672A (mouse, UniProt Q8K0F1 559-677, K672A); assay: ITC
# [2] = target: TBC1D23 C-terminal domain (mouse, UniProt Q8K0F1 559-684); assay: ITC
# Chain of TBC1D23 C-terminal domain (Q8K0F1 559-684): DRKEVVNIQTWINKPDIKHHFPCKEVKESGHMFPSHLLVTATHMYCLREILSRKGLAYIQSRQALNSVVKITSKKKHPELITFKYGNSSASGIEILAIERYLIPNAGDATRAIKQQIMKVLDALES
# Chain of TBC1D23 C-terminal domain K672A (Q8K0F1 559-677 K672A): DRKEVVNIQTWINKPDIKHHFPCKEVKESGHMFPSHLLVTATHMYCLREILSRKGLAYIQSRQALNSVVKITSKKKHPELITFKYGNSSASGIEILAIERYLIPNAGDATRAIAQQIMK
Binder,Kd [1] [µM],Kd [2] [µM]
DDNTLYHRGFTED [syntaxin-16 (209–221) peptide],27.5,
AANTLYHRGFTED [STX16 DD209-210AA],,> 200
DDNTLYHAGFTED [STX16 R216A],,10.3
